B1: chimera protein of the DNA-binding region of GAL4 and the bHLH-PAS region part of the present transcription regulatory factor (mNXF) (other)
chain: MKLLSSIEQACDICRLKKLKCSKEKPKCAKCLKNNWECRYSPKTKRSPLTRAHLTEVESRLERLEQLFLLIFPREDLDMILKMDSLQDIKALLTGLFVQDNVNKDAVTDRLASVETDMPLTLRQHRISATSSSEESSNKGQRQLTVSMYRSTKGASKARRDQINAEIRNLKELLPLAEADKVRLSYLHIMSLACIYTRKGVFFAGGTPLAGPTGLLSAQELEDIVAALPGFLLVFTAEGKLLYLSESVSEHLGHSMVDLVAQGDSIYDIIDPADHLTVRQQLTMPSALDADRLFRCRFNTSKSLRRQSSGNKLVLIRGRFHAHPPGAYWAGNPVFTAFCAPLEPRPRPGPGPGPGPGPASLFLAMFQSRHAKDLALLDVSESVLIYLGFERSELLCKSWYGLLHPEDLAQASSQHYRLLAESGDIQAEMVVRLQAKHGGWTWIYCMLYSEGPEGPFTANNYPISDT
notes: Expressed in HeLa cells for the two-hybrid assay; also called Gal4-mNXF; Gal4-NXF

Experiments:
[1] = target: B1; assay: mammalian two-hybrid assay in HeLa cells (Gal4-NXF + VP16-NXF, luciferase reporter)
[2] = target: T1, chimera protein of the VP16 transcription activating region and the bHLH-PAS region part of Sim2 (human, UniProt Q14190 1-500); assay: mammalian two-hybrid assay in HeLa cells (Gal4-NXF + VP16-X, luciferase reporter)
T1 construct: domain: bHLH-PAS region part; also called VP16-Sim2; pVP16-Sim2 (bHLH-PAS) product
T1 sequence: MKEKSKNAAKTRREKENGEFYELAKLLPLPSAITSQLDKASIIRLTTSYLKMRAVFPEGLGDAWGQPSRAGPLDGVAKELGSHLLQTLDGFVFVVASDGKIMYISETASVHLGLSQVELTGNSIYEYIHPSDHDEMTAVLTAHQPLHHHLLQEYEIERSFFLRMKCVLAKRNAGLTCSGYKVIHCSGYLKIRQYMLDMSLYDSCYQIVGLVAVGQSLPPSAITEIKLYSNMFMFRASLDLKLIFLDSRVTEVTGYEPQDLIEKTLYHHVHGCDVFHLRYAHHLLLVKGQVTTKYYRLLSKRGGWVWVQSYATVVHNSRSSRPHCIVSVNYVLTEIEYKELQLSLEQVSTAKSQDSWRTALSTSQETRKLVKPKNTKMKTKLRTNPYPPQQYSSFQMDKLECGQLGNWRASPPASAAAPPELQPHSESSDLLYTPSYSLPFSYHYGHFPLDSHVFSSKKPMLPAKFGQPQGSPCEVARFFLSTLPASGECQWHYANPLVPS

[3] = target: T2, chimera protein of the VP16 transcription activating region and the bHLH-PAS region part of Clock (human, UniProt O15516 1-530); assay: as above
T2 construct: domain: bHLH-PAS region part; also called VP16-Clock; pVP16-Clock (bHLH-PAS) product
T2 sequence: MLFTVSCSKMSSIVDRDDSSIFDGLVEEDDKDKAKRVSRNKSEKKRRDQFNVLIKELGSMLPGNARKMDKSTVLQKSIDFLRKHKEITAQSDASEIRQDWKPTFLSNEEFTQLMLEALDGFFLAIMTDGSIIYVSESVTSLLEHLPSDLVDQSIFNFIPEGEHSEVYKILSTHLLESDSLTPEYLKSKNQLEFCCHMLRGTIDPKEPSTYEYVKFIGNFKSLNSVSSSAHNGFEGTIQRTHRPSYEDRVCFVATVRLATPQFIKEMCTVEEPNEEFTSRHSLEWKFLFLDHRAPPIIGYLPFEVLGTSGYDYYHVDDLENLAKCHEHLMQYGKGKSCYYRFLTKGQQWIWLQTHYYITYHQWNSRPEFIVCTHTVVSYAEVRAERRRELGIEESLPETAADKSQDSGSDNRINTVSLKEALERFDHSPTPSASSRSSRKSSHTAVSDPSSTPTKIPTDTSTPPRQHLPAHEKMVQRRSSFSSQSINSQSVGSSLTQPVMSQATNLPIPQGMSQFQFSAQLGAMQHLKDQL

Binder	binding result [1]	binding result [2]	binding result [3]
chimera protein of the VP16 transcription activating region and the bHLH-PAS region part of the present transcription activating factor (mNXF) (other, also called VP16-NXF; pVP16-NXF (bHLH-PAS) product) MYRSTKGASKARRDQINAEIRNLKELLPLAEADKVRLSYLHIMSLACIYTRKGVFFAGGTPLAGPTGLLSAQELEDIVAALPGFLLVFTAEGKLLYLSESVSEHLGHSMVDLVAQGDSIYDIIDPADHLTVRQQLTMPSALDADRLFRCRFNTSKSLRRQSSGNKLVLIRGRFHAHPPGAYWAGNPVFTAFCAPLEPRPRPGPGPGPGPGPASLFLAMFQSRHAKDLALLDVSESVLIYLGFERSELLCKSWYGLLHPEDLAQASSQHYRLLAESGDIQAEMVVRLQAKHGGWTWIYCMLYSEGPEGPFTANNYPISDT	no binding		
B1		no binding	no binding
